# Data: the supplement of paper PMC10126150
# ± gives the standard deviation of the averaged measurements.
# System: ATP
# Test: switch fluorescence ratio, 500 uM ATP over buffer (Cy3 cluster intensity, sum of 5 cycles each) (fold (ratio)); higher = stronger signal-on switching upon ATP binding; sequences stand for … in TCGTCGGCAGCGTCAGATGTGTATAAGAGACAGTTTTTTTTTTTTTTTTTTTTTTTTT…TC
# Settings: aptamer strand: ATP DNA aptamer (quencher-CACCTGGGGGAGTATTGCGGAGGAAGG + anchor), 100 nM annealed; ATP concentration: 500 uM
# How it was run: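 Clusters with intensities outside 100-1000 RFU were excluded. The remaining Cy3-labelled switching-strand clusters on a modified Illumina MiSeq flow-cell had been annealed to 100 nM quencher-labelled ATP aptamer and imaged in selection buffer, then after 15 min with 500 uM ATP at 22 °C, for five cycles separated by NaOH stripping and re-annealing. The fluorescence ratio, averaged per switch-domain sequence, is each cluster's summed target-cycle Cy3 intensity over its summed buffer-cycle Cy3 intensity.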
# 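Note: ATP exposure 15 min at 22 °C before imaging.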
row,Sequence,switch fluorescence ratio
1,AGATCGTTGT,0.978 ± 0.028
2,AGATCTTCGG,1.001 ± 0.0076
3,AGATGAATGT,0.987 ± 0.015
4,AGATGAGGAA,1.004 ± 0.01
5,AGATGAGGGA,1.02 ± 0.032
6,AGATGATTGG,0.985 ± 0.023
7,AGATGCAGCT,0.976 ± 0.033
8,AGATGCCAGG,1.1 ± 0.031
9,AGATGCTTAT,0.979 ± 0.019
10,AGATGGATTT,0.963 ± 0.0091
11,AGATGGCGCT,0.967 ± 0.029
12,AGATGGGCAG,0.996 ± 0.012
13,AGATGGGTAC,1.03 ± 0.029
14,AGATGGTCAA,0.967 ± 0.02
15,AGATGTATAG,1.034 ± 0.009
16,AGATGTCCTT,1.02 ± 0.037
17,AGATGTCTGG,0.9897 ± 0.0063
18,AGATGTGGTT,0.9922 ± 0.0041
19,AGATGTTGAA,0.979 ± 0.023
20,AGATGTTTGT,1.01 ± 0.038
21,AGATTAAGTA,0.989 ± 0.024
22,AGATTAATTG,0.994 ± 0.008
23,AGATTAATTT,0.986 ± 0.021
24,AGATTACTGC,1.01 ± 0.023
25,AGATTAGGCA,0.992 ± 0.013

row,Sequence,switch fluorescence ratio
1,AGATTCTGGG,0.971 ± 0.016
2,AGATTCTGTA,0.97 ± 0.011
3,AGATTGAGCG,1 ± 0.019
4,AGATTGATCG,1.02 ± 0.015
5,AGATTGATGC,1.03 ± 0.03
6,AGATTGCATG,1.029 ± 0.0077
7,AGATTGCCGG,0.97 ± 0.034
8,AGATTGGACG,1.02 ± 0.024
9,AGATTGGGGA,1.01 ± 0.013
10,AGATTGGGTA,1.01 ± 0.024
11,AGATTGGGTT,0.967 ± 0.024
12,AGATTGTGCT,0.975 ± 0.046
13,AGATTTACTT,0.985 ± 0.014
14,AGATTTAGTC,1 ± 0.051
15,AGATTTGCTA,1.004 ± 0.0078
16,AGATTTTTAT,0.983 ± 0.012
17,AGCAAATGGT,1.07 ± 0.051
18,AGCAACATAA,1.13 ± 0.022
19,AGCAACATTA,1.06 ± 0.025
20,AGCAACCCCG,1.22 ± 0.17
21,AGCAAGGCGT,1.03 ± 0.043
22,AGCAAGGGGG,1.09 ± 0.11
23,AGCAATGTCT,1.26 ± 0.065
24,AGCAATTTTT,1.1 ± 0.034
25,AGCACGGGTA,1.008 ± 0.0055

row,Sequence,switch fluorescence ratio
1,AGCACTGCTG,1.01 ± 0.014
2,AGCAGAAGGA,1.02 ± 0.015
3,AGCAGCTAAG,0.995 ± 0.01
4,AGCAGCTGGG,1.01 ± 0.012
5,AGCAGGGGCT,1.025 ± 0.0069
6,AGCAGGGGGG,1.06 ± 0.067
7,AGCAGGGGTA,1.17 ± 0.26
8,AGCAGTTCGG,1 ± 0.036
9,AGCATACCTT,1.11 ± 0.17
10,AGCATAGCAT,1.01 ± 0.019
11,AGCATGGTAT,1 ± 0.04
12,AGCCAGTTTT,0.9892 ± 0.0073
13,AGCCATTTTG,1.02 ± 0.022
14,AGCCCGCGCA,1.03 ± 0.028
15,AGCCGAGTTC,1.01 ± 0.049
16,AGCCGGATCA,0.9931 ± 0.0056
17,AGCCGGGTAG,1.053 ± 0.0086
18,AGCCTTATCC,1.09 ± 0.02
19,AGCCTTTTTG,0.992 ± 0.042
20,AGCGAAATCA,1 ± 0.078
21,AGCGAAGATG,1 ± 0.033
22,AGCGAAGCTG,1.01 ± 0.011
23,AGCGACCGTT,1.032 ± 0.0078
24,AGCGACGTTT,0.9647 ± 0.0064
25,AGCGAGTGTG,1 ± 0.026

row,Sequence,switch fluorescence ratio
1,AGCGATAGTC,1.56 ± 0.024
2,AGCGATAGTT,1.1 ± 0.038
3,AGCGATCGGT,1.03 ± 0.014
4,AGCGATGCTT,1.133 ± 0.011
5,AGCGATTTAT,1.03 ± 0.0079
6,AGCGCGAATG,1.01 ± 0.018
7,AGCGCTGCCT,0.996 ± 0.031
8,AGCGCTTGTG,1.02 ± 0.038
9,AGCGGGGGTT,0.9996 ± 0.0055
10,AGCGGGTCCG,0.987 ± 0.017
11,AGCGGTCAGT,0.9776 ± 0.0075
12,AGCGGTCTGG,1 ± 0.013
13,AGCGTAGTCA,0.9868 ± 0.0021
14,AGCGTATGTG,1.02 ± 0.062
15,AGCGTTAGTG,1.06 ± 0.013
16,AGCGTTCTGG,1.04 ± 0.041
17,AGCGTTGTG,1.01 ± 0.044
18,AGCGTTTTCA,0.994 ± 0.04
19,AGCTAAAACG,1.14 ± 0.19
20,AGCTACACGT,1.05 ± 0.014
21,AGCTACTTTT,1.022 ± 0.0035
22,AGCTCTAAGA,1.02 ± 0.021
23,AGCTCTGCGA,1.09 ± 0.039
24,AGCTGATACG,1.31 ± 0.0078
25,AGCTGCATG,0.997 ± 0.024

row,Sequence,switch fluorescence ratio
1,AGCTGGGGTA,0.951 ± 0.029
2,AGCTGGTCGT,0.97265 ± 0.00075
3,AGCTGTACTA,1.21 ± 0.029
4,AGCTGTAGTA,1.01 ± 0.011
5,AGCTGTTTGG,1 ± 0.015
6,AGCTTAAGGA,1.03 ± 0.035
7,AGCTTAGGTC,1.03 ± 0.029
8,AGCTTCGTGG,0.971 ± 0.019
9,AGCTTCTTAT,1.03 ± 0.028
10,AGCTTGCTAT,0.97 ± 0.011
11,AGCTTGGGCG,0.995 ± 0.11
12,AGCTTGTGTG,1.01 ± 0.061
13,AGCTTTACGG,1.04 ± 0.019
14,AGCTTTAGGG,0.9905 ± 0.0022
15,AGCTTTATGC,0.935 ± 0.043
16,AGCTTTATTT,1.06 ± 0.12
17,AGCTTTGTC,0.989 ± 0.043
18,AGCTTTGTTT,1.01 ± 0.013
19,AGCTTTTGAA,1.006 ± 0.0026
20,AGCTTTTTGC,1.02 ± 0.038
21,AGGAAACTTA,0.988 ± 0.0076
22,AGGAAAGAAT,0.968 ± 0.056
23,AGGAAAGATT,1.01 ± 0.028
24,AGGAAATAGG,0.963 ± 0.049
25,AGGAAATATT,1.01 ± 0.012

row,Sequence,switch fluorescence ratio
1,AGGAAGGCGG,1.02 ± 0.035
2,AGGAAGGGGT,0.979 ± 0.033
3,AGGAAGGGTG,1.04 ± 0.022
4,AGGAAGGGTT,1.05 ± 0.12
5,AGGAAGGTGT,1.13 ± 0.2
6,AGGAAGTTGG,0.97916 ± 0.00082
7,AGGAATCGTT,0.9969 ± 0.0072
8,AGGAATGACT,1 ± 0.023
9,AGGAATTCGG,0.999 ± 0.017
10,AGGAATTGCT,1.03 ± 0.018
11,AGGAATTTGG,0.978 ± 0.024
12,AGGACAAAGG,0.989 ± 0.041
13,AGGACAGCGC,1.024 ± 0.008
14,AGGACAGGGT,0.972 ± 0.011
15,AGGACGGAAT,1.091 ± 0.0016
16,AGGACGGGCA,1.05 ± 0.053
17,AGGACTAAAG,0.982 ± 0.013
18,AGGAGAATGT,1.02 ± 0.011
19,AGGAGAGGAT,1.14 ± 0.28
20,AGGAGATTCA,0.959 ± 0.041
21,AGGAGCGTCG,1.01 ± 0.013
22,AGGAGCTAGT,1.01 ± 0.038
23,AGGAGCTGGT,1.02 ± 0.012
24,AGGAGGCTTC,0.983 ± 0.029
25,AGGAGGGGGC,1 ± 0.048

row,Sequence,switch fluorescence ratio
1,AGGAGGGTAA,1.024 ± 0.0031
2,AGGAGGGTTA,1 ± 0.028
3,AGGAGGTAAA,1.002 ± 0.0034
4,AGGAGGTGGG,0.981 ± 0.017
5,AGGAGTAGTC,0.996 ± 0.021
6,AGGAGTATTA,0.983 ± 0.018
7,AGGAGTCGGT,1.01 ± 0.012
8,AGGAGTTATT,1 ± 0.024
9,AGGAGTTGAA,0.978 ± 0.016
10,AGGATAAACT,1 ± 0.013
11,AGGATAACCG,1.028 ± 0.0012
12,AGGATACGGT,1.0054 ± 0.00059
13,AGGATATCAG,0.991 ± 0.027
14,AGGATATGGC,1.09 ± 0.12
15,AGGATGACAG,0.998 ± 0.04
16,AGGATGATGT,1.01 ± 0.032
17,AGGATGGACC,1.01 ± 0.024
18,AGGATGGAGG,1.035 ± 0.0019
19,AGGATGGTTT,1.002 ± 0.0077
20,AGGATGTTAT,1 ± 0.016
21,AGGATTCGGT,1.01 ± 0.027
22,AGGATTGAGT,1.024 ± 0.0094
23,AGGCAAATGC,1.25 ± 0.1
24,AGGCAACGAA,1.04 ± 0.039
25,AGGCAATTGT,1.026 ± 0.01

row,Sequence,switch fluorescence ratio
1,AGGCAGAGTA,0.992 ± 0.038
2,AGGCATATAG,1.09 ± 0.077
3,AGGCATTATA,1.01 ± 0.013
4,AGGCATTGGG,1.0154 ± 0.00096
5,AGGCCACTGA,1.034 ± 0.0011
6,AGGCCATAAG,0.9953 ± 0.0034
7,AGGCCCGGGA,0.997 ± 0.013
8,AGGCGAAGGG,0.993 ± 0.032
9,AGGCGGAAGT,1.014 ± 0.0031
10,AGGCGGGGGG,1.02 ± 0.041
11,AGGCGGGGTG,1.04 ± 0.024
12,AGGCGGGTAT,1.015 ± 0.0028
13,AGGCGGGTGG,1.03 ± 0.019
14,AGGCGTAAAA,0.985 ± 0.019
15,AGGCGTATTT,0.9987 ± 0.0062
16,AGGCGTTGGG,1.01 ± 0.015
17,AGGCTATATT,0.975 ± 0.01
18,AGGCTTAAAT,0.989 ± 0.025
19,AGGCTTATCG,1.02 ± 0.024
20,AGGCTTGATG,0.972 ± 0.033
21,AGGGAAAGCG,0.996 ± 0.044
22,AGGGAAAGGT,1.06 ± 0.05
23,AGGGAAATTT,0.99 ± 0.014
24,AGGGAACCGC,1.016 ± 0.0062
25,AGGGAACGAT,0.9693 ± 0.0022
